Results taken from article PMC8041783.

Target: His-FliI(R33A) (Salmonella enterica) (UniProt P26465)

His-FliI(R33A) (from UniProt P26465 1-456) (enzyme)
ATPase activity (Malachite Green assay, 4 mM ATP) at 17 to 85 nM FliI(R33A) (nmol of phosphate min^−1 μg^−1): 1.21
